From publication PMC9794699 come the findings set out here.

Assay [1] deals with low-density lipoprotein receptor-related protein 1 (LRP1), endogenous in WI38 lung fibroblasts (human (endogenous in WI38)) (UniProt Q07954).
Assay [2] has the same target. This is another data set of the same source.

Chain of UniProt Q07954 (Q07954 20-4544): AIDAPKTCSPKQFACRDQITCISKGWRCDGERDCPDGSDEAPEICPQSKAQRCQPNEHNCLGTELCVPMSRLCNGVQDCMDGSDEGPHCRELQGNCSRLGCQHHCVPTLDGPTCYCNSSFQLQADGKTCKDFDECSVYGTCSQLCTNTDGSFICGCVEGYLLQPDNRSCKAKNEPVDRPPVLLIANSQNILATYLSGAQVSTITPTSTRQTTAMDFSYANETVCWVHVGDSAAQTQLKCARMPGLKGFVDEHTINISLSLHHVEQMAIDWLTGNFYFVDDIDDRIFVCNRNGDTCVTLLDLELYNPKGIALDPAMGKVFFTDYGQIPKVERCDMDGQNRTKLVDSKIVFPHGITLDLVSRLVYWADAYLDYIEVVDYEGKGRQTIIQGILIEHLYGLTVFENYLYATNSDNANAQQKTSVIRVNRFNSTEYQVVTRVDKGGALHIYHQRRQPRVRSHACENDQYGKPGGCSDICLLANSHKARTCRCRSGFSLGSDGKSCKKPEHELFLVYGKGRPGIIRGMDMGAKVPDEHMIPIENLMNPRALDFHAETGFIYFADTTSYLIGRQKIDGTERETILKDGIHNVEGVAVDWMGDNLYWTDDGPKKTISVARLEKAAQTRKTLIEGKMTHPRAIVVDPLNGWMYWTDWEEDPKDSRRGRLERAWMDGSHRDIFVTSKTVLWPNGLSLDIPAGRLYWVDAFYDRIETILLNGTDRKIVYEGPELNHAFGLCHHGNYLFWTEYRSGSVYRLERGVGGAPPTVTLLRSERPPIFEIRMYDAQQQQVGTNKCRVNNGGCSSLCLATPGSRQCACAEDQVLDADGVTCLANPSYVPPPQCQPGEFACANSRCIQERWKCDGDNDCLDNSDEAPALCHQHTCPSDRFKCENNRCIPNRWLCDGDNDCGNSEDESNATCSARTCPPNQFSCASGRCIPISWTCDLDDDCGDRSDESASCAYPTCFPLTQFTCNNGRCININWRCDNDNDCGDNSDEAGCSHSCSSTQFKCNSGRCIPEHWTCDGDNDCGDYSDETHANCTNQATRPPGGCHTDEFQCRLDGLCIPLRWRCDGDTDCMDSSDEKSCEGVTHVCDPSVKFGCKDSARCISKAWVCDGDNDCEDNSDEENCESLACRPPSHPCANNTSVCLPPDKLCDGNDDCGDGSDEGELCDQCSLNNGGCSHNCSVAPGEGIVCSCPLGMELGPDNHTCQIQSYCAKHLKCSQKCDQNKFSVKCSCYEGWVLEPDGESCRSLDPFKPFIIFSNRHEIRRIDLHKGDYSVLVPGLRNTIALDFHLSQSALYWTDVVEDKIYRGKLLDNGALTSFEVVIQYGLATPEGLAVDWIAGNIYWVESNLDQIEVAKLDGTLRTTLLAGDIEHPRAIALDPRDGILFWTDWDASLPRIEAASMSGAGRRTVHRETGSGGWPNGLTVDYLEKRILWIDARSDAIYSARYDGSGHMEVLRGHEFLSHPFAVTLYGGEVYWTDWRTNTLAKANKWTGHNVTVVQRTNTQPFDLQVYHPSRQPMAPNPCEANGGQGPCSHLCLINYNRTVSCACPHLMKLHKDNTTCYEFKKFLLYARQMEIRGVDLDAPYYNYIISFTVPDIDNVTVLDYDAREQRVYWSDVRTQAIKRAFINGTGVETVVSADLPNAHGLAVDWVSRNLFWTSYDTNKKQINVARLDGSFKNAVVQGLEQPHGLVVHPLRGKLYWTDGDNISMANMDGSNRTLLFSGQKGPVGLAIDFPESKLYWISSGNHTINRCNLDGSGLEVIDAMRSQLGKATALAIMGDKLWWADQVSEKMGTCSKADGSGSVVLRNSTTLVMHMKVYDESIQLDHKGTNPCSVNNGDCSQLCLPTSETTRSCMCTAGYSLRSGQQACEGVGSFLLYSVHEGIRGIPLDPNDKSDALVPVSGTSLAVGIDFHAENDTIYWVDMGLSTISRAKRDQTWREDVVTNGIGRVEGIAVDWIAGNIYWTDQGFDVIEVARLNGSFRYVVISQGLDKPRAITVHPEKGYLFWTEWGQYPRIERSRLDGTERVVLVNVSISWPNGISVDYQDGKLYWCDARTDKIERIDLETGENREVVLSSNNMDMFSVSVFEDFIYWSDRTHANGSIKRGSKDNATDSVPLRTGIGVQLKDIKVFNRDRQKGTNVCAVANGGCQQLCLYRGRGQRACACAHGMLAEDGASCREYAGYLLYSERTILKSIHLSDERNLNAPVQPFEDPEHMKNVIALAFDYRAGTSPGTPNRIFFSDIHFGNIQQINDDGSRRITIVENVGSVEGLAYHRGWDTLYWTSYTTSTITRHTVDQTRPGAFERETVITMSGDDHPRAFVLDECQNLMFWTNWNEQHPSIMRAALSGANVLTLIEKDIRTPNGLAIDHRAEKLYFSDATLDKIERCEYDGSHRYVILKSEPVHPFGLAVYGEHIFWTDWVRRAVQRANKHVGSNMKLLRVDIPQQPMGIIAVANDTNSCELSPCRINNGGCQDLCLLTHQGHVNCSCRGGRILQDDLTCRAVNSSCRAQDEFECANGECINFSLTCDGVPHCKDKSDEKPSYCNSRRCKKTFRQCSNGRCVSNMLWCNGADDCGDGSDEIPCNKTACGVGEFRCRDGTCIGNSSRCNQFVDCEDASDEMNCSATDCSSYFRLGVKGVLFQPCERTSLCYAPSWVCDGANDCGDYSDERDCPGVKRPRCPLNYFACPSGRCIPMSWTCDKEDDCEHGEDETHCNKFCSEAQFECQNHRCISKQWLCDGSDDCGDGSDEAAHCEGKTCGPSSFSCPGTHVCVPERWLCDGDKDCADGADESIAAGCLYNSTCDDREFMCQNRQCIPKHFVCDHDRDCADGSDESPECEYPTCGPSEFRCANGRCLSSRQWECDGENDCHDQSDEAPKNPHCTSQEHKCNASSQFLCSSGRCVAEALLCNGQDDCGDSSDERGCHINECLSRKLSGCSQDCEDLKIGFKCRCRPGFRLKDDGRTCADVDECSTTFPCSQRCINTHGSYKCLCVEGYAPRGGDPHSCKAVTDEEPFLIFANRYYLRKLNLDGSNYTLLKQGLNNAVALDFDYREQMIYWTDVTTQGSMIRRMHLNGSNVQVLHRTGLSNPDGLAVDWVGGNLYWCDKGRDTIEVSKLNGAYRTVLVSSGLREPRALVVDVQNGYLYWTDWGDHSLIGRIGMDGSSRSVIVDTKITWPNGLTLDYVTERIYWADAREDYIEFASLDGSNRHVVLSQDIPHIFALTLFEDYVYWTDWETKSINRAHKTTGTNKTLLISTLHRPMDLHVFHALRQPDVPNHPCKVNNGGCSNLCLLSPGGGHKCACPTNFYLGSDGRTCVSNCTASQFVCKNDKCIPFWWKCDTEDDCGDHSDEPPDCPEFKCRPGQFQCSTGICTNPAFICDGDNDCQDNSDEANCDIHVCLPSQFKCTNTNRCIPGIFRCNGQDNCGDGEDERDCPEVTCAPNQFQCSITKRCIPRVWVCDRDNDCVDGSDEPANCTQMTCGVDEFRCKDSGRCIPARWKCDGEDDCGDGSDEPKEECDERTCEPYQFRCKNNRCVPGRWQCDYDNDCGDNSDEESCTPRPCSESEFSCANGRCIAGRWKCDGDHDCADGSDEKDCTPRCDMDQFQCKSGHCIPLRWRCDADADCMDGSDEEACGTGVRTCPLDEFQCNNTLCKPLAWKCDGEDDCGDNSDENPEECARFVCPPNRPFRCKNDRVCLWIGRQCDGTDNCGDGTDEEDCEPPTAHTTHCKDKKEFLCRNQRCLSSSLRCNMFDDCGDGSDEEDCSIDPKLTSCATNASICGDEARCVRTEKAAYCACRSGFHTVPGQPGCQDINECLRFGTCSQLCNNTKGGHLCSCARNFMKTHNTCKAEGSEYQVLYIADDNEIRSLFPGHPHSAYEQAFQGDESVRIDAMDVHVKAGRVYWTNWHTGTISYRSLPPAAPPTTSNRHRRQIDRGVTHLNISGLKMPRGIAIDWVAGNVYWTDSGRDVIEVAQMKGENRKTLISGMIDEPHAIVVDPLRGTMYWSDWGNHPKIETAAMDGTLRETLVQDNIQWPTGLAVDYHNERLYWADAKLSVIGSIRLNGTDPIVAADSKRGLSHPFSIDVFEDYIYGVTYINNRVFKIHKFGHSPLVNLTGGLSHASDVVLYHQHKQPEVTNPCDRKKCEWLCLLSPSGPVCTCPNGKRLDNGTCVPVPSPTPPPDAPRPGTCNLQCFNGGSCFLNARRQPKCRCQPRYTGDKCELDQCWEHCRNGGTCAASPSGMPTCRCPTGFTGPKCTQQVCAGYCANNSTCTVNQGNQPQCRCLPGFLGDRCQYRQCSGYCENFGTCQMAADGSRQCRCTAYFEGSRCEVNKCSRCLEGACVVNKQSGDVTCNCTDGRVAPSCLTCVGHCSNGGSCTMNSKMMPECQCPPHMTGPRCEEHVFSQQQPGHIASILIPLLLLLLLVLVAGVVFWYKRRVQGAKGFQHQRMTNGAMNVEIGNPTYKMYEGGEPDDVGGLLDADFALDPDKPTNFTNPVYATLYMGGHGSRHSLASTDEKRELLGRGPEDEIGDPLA

In turn, “PRSS2 (serine protease PRSS2, wild type), ectopically expressed in 293T cells (from UniProt P07478 16-247) (enzyme)” registered a repression of Tsp-1 protein (western blot) in mock-transfected WI38 fibroblasts treated with CM from 293T cells expressing PRSS2 in assay [1] of 58%. In assay [2], this substance showed a Rac-GTPase activity (G-LISA) in WI38 cells treated with CM from 293T cells expressing PRSS2, compared to CM from empty vector-transfected cells of 2 fold and a Rho-GTPase activity (G-LISA) in WI38 cells treated with PRSS2 CM (fold decrease) of 3.2.
